According to a protein production outcome set (Wang et al. 2014):

assay: label from the status in PepcDB records

| Sequence | protein production |
| --- | --- |
| MWDALTNWLNLWVGQIEATVFQNVVLPVVYNLGFGGYAEDAFTGTEWLLVGLVQIAVMVLILGPLERLRPVEVVTDRAAIRTDILYTLIHRLGLFRLAMFFLLAPLMDGIEGHLRLLGWQRVNVEDWWPGVTSIPLISFSLYLALFDLLDYWYHRLSHTYRWWWSLHAVHHSQRQMTLWSDNRNHLLDDILRDFVFAAVALAVGVEPSQYVLLVALSQLLQSLQHANLRLHFGWLGERLLISPRFHRTHHAVGLGHEKRATAEKPARLGGCNYGVIFPWWDMLFGTADFTDVYHPTGIRDQMPPPAGRARSYGDGFLSQQWLGIKRLLRLG | failed |
| MWRSCLRLRDGGRRLLNRPAGGPSASMSPGPTIPSPARAYAPPTERKRFYQNVSITQGEGGFEINLDHRKLKTPQAKLFTVPSEALAIAVATEWDSQQDTIKYYTMHLTTLCNTSLDNPTQRNKDQLIRAAVKFLDTDTICYRVEEPETLVELQRNEWDPIIEWAEKRYGVEISSSTSIMGPSIPAKTREVLVSHLASYNTWALQGIEFVAAQLKSMVLTLGLIDLRLTVEQAVLLSRLEEEYQIQKWGNIEWAHDYELQELRARTAAGTLFIHLCSESTTVKHKLLKE | failed |
| MWVQTKANEDAAPMSERFTLVLLTHEAKALAQRALRYYSSFACSILVLDSSEKADESLARQFPKVDYRHVPQFSRQDQQGKLTYGVGLVDTPYLAIASDTDFLIADGISAALAFLDAHPDYAVCHGYGLMYSARVLETSYYLRDRKGPEDFAAANGRERIMSFMGHYLSPFNAVTRTDVLRQWYSQLPPAVSTEWLDIGYAFFLLATAKARILPVPFIVREANREALERTARIQALLSSKDAGSLAQHQQFAEFLATLPHNCEGPDAQQMKQLALDSFAALAECLESGRSLKGVMIFRSTWSEVGKDPVRAFGSEQFVEMPFYNQPMFDLLTQIEFLVHAMPAGRLQLNELEGVLLKQEELLRVHSNDTARTLRSRLWEAMALNLFNFTVVKRLAESMRDTDEVEVFRELQEWAARLKALPATDSSALFANTQSGQLFSWLEGRGPKPGQFKSIAHLLGRRAGGPQFQILLLDLDADMIKLQATFDSLMANHCKAFKLVVLTTGDLPAMTTAQDTVHFVKVSQGNYIERLNQLVAQSTAHWVLLMEAGDQLTASGLLRASLELLGAEGIRAVAMDEVQRQADGTLRHVFRPGVNLDLLQSAPNLMARHWLLHREVLLQAGGFNREFARAVELDLVLRLIEDGGLAGLAHLAEPLLICQAAPAGENAEERQVLSRHLANRGYRAQVSSAQPGTYQIDYQHAERPLVSIILPSQDNFAELQRCLVSVLQRTRYQRYEVLIAENHSQNAELDSWLASLERQGERIRVLRSGQRVSTSALHNAACAEAKGEYLLLLSADAEVVNANWIDSLLNQVQRPEIGIVGARLVNERGMTTQAGLILGLNGQLGAAFAGEAKDAPGYMNSLWVEKNYSAVSGVCLMIAKALFEAVGGLDEEHFDQAFADVDLCLKVADAGYLTVLTPQAQVMHPGTLAQDPQALAALKDKWAARFAQDTAYNQNLALTGKGFALGTASRVDWQQLLSN | failed |
| MWYPLAAMKGVLEALHQGDYDTAIDLLTRKALFGREREAKEAWLLLAEVYALYGEEGLEKAHHALEEAYALGGLEYDPLYRSLLAELLALEGRPEREVLPLFLPSRDPRVRYHQAQALFYLGRLEEALEVLEAGLPPHLAWRAEGLKGRILERLGRHGEAALAYERGAELALGLERYWLLLDAAAMWLEAGEGERALLALKEAEAAVGEEDPEDAATRHYLLARAHLLLGNPGLALEEIRKALALEEESGHKAYGTPLVEGQALLQLGRYEEAMASFREALARADAGERPHVLHEMGVAALDHGAYPEAEEHLRALVREEGYPYLAQAYADLAEALYRQGRYQEAEAAAREAVARGAVAAGELVLGHVAYDLLHLEEALEHYRKAAESAEEGSREWVGAQEMVVDTLAQLGYRFPEEMVRRGQAVLPYLHPADEWHAALTAYVERAQALLREGKRLN | failed |
| MYAAVEHGPVLCSDSNILCLSWKGRVPKSEKEKPVCRRRYYEEGWLATGNGRGVVGVTFTSSHCRRDRSTPQRINFNLRGHNSEVVLVRWNEPYQKLATCDADGGIFVWIQYEGRWSVELVNDRGAQVSDFTWSHDGTQALISYRDGFVLVGSVSGQRHWSSEINLESQITCGIWTPDDQQVLFGTADGQVIVMDCHGRMLAHVLLHESDGILSMSWNYPIFLVEDSSESDTDSDDYSPPQDGPAAYPIPVQNTKPLLTVSFTSGDISLMNNYDDLSPTVIRSGLKEVVAQWCTQGDLLAVAGMEQQAQLSELPNGPLLKSAMVKFYNVRGEHIFTLDTLVQRPIISICWGHRDSRLLMASGPALYVVRVEHRVSSLQLLCQQAIASTLREDKDVNKLTLPPRLCSYLSTAFIPTIKPPIPDPNNMRDFVSYPSAGNERLHCTMKRTEDDPEVGGPCYTLYLEYLGGLVPILKGRRISKLRPEFVIMDPRTDSKSDEIYGNSLISTVIDSCNCSDSSDIELSDDWAAKKSPKISRSSKSPKLPRISIEARKSPKLPRAAQEISRSPRLPMRKPSMGSPSLTRREFPFEDITQVGSYN | failed |
| MYADEQFKQVFQCIRCAACLNVCPAFQLVGGHVYGHIYTGGIGTILTAFLNSEKDAENPQNLCLQCGKCTEVCAGKLDIPGMILEIRNRIGDQKGLPMTPLEHHHHHH | failed |
| MYALVDAVSFYASAEKVFDPSIRNKPVVVLTNNDGCICAVCPIARRLGIPKFIPYFQVKSLLEKHGVVVRSSNYELYADLSERMMNVIGRFCDNQYIYSIDESFLYFDHYESCINDWHEYGHKIRKAIWKETRLPVGVGFGETATLSKAANHAAKKLSGFNGVAVINSAVSRDKILKRMAVDEVWGIGRKISKRLGLEGINNAAQLAEQDPKHIRKQFSVVTERTVNELNGISCLSWDEVKSPKKEIFSTRSFGQRITTKNELRSALVTHAAIVGRKVRRQNSLIKKLMIFASNSPHDDLYYKQSMVFPFIIATENTCEMARAVNQVIDSIYKAGIKFYRCGVGAIELNSKTFIQPDLFMPDHTNSNVMKCLDNVNHRYGDSTLKLAAEGHHEKWQMRRAFLSPQYTSQWRDIPKIQC | failed |
| MYDFKKINNLRGIERETLRVTDCGNLATSNHPDGLGHKLTNNSITVDFSENLLELITKPHDSIDKAIGELYQLSAFTLDNMHSDEIILNTSMPLSANDNDIQEADFGSSNSGRMKRVYRKGLSARYGKIMQIISGIHYNFSFDKDLISNIATNKQVSISDIYFDVLNNYFEFMWLLPYLFGASPICAKTSVKNKPDYLSVLDDKFYVGEYATSLRMSDLGYTSPAQKDLAISYDNVKAYVKDLIQATDDTFADYKRIGLYNSQGQRIQLNDGILQIENEYYSAIRPKQIAKRGERPACALYNRGVEYVEVRVLDVDPFEPVGISKDTALFVEVMLMTCLDKDAKKYHKDIIKQAKQNLTAVAIQGRNPQLKLKKLDDDSEILLKDYALELFDEIEAVAKKMPKEYLDAVEIQKRKVLDISQTPSAKIIELARQHGYKKFILDISRRVSQQFRSYELPAAIVAKLKDQAGQSVAAEKELVANDKISLDEYINRYYKSSKGCC | not failed |
| MYDHILLASDGTEASTNAESHAISLAAEHGAALHVLYVVDEDVYTAYSGDEYVDESEGPEHGLEETGQETLARIQADAEASGVDATTTLKHGRPAESVIETADEADVDLLVLGTKRRPAEYRSLLGSITDKVLRLSERPAVVVKTEVEE | failed |
| MYDLRPRTLTFLEVALPPTTDTTPIFSLLFFSQCSVFKGFSRSTSSAEAGGVLGGSTRVLICSVSSLVKIEDCKVKIFDKLSEKAEKVLEIGIGTGPNMRYYAARNSNVTLYGLDPNPKMKKYARKSATKAGLKPKNFRFKQGVGEAIPLKDNSVDAVVATLVLCSVSDVTQTLKEIKRVLRQGGVFIFLEHVAAKDGSFFKRLQKLLDPLQQRLADGCHLARNTRECILEAGFSGGVEVQTFSMYSFPWMTRPHIYGLAYN | not failed |
| MYEGEIAIGPVHSTMLEPHRLRLFIEDEIVKDAELTIGVNHRGVERLMEGLPVEKACILCEKICGICSHIHLWSAARVAEIGCNIEVPERANHIRIIVEELERLHSHTLLFGHAFEILGHETMSMRCFMLREPIMQVFFEISGSRVHYSCPIIGGIRPRCNISETQISHIHDKISQYEEGLTKFIERMLNDPMIISRVKDVGVMDRKTAAKFHAVGPTARGSNVKSDMRKWGWVPEYDPYDFDEILFDSGDVFARLAVRFYECLESVKIIRQALDALKDTSDKRIYNPNYELNEFKPINCYTEAQRGEQYYSYGLDDEGLVRQAKIRTPTATNLGAMEDIVKGYHVSDAELIIASCDPCFTCTDRLMVLKEPFKK | failed |
| MYEHQTYEAILVRMLARVPETIDKREGSLIYDALAPGAAELAQAYAELVVNNNLSFADTASGEFLTRRAAEFGIKRKVATKAWRRGGFLDSNNALLNIPLGSRYSIGGLNYTAIEQISTGAYVLECETAGTAGNQQFGDLLPIAYVNSLARAELTEVLVPGEDEETDEALLSRYYETVNEPAFGGNMADYRQKVNAINGVGGTKVFPTWAGGGTVKCTIIASDWAKPSPELVNEVQSTMDPEENQGMGLGQAPIGHAVTIAGVDKVTVDVETTLTLAPGVTPGQVQSDVEAILDAYLLEQRKTWAAQTQIIIRMAQIDARMLTVQGVEDVTGTKLNGTEANFLLDEEEIPILGTVIINELEHHHHHH | failed |
| MYELTEDFKLRKITKYELDGVDEREDLLVIPPSSKAGPCGNGCLFCYLLQNPPEMIYRVARHDTLNDPTLEERIRYARKHYDLWIRVTDTSGNVKFDENRIKSLYEAGLDEIQISVHTTKKDVRIKLMRNRHAGKLIDLLPLVAKHFRTIADIILTPGFNVDDIGEIIEDLDSMGVHEVRLFPVGVTKYNRFEIRPLTKEE | failed |
| MYEPPNQFHCLDADVWIEIPNRVIGVTGNCYVGRDYIPKNGKTRYDVKVFVKKIKKEQENPDTLIKDNDLELSKSKSDDIGTLIEKGVNLRNFKKYDEALQIFEKVTELEPSNAQAWHNKGIILGILKKYNEARQAFEKAMEIEPGKNRRDCSSRHLRSARNRTSERNQGSNVEQ | failed |
| MYFSATLFNKYYKLLGTNDEGKLNLERTSSLAYFLALDQMQKDEEEPNAVINMYKDSLSRKNFMEKVGEIFVIAKNGSFEYQANILGCINKVEGGGNSMSSKTGKNFLSTQVISASSSPNPVGYPKRPAASFILELGFEIEGHKHGIKKSDSWKNNLMKFIEFRKCGTDTFPLIVFLLRDKQLNNNLDFNNAIREGLGSAYTQAVVDYLIVNAQVPSLVWDDLQNFATAPFTIDELDTELFMQDQPETNNLQPTVQVKEFKEIEIPNDISRNRIVYGAPGTGKSYKLNKDAKEFFPDDDLYIRVTLYPNYSYSQFVGTYKPTPIYKDVEGEFYKSDMVTSIGHGKEPLIDYTFVPGPFLIQLVNALKYPKSNFVIIIEEINRANAAAVFGDVFQLLDRKDDGESEYTITFNADVTNYLRKEGIFDLQIKIPKNLYIWATMNSADQGVTPLDTAFKRRWSFEYMPIDAGEGAVSSLEMELKFLENPILWNKFRKILNQKLKELMVPEDKLIGPFFMKSYELSNPESFKNKLLLYLRDDVLRHNATKFFKHQTFSDIVTAYDQGGNIFRTISKEELVRSE | not failed |
| MYIIFALLAFSALILVHELGHFIVAKLNGIYVEEFAIGMGPKLFGVKVGETEYNLRILPFGGFVKMLGEEDESDDSGSLNAKTPIQRILVMGAGAFMNYVLALIIFIGLAMSSGFAENKVASVVPNSPAQEIGIEQGDEFLKIDGNKIHTTDDFRMGLALAKGNPVELEIKRGNDVLTKTVQPILNESGMYQVGISYALVEKPTLLQGIKQGFNETRSLVSQSFIALKTIVTGEANLKTDVGGPVTIIKMSGQAAKAGANTLLWFMAFLSVQLAVFNLLPFPALDGGRIFIELIQMIIRKEIPAKYIEAVNTVGFMLLMGLMVLVTIKDIIFPIL | failed |
| MYKDEMIQLHQFLVYVLKYLENGYDIKDECEEYFSLNISPHHIHRTKAEHKYAIFVLSSAISEILARKEGNNLPPNVVNGLSELARRSRKEVVKMEARLEAK | failed |
